In patent US20240148883A1, “Branched Linkers for Antibody-Drug Conjugates and Methods of Use Thereof” (priority 2021, published 2024):
Read-outs that look alike come from different tables or passages of the source.

Tests used:
[1] = format: physicochemical
Description: (§1) Methods: Antibodies (15 mg/mL) bearing one or two aldehyde tags (single or double-tagged constructs) were conjugated to linker-payloads at 1.1 or 1.7 mM, respectively. Reactions proceeded for 72 h at 37° C. in 20 mM sodium citrate, 50 mM NaCl pH 5.5 (20/50 buffer) containing 0.85-2.5% DMA. […] After conjugation, free drug was removed using a 30 kD MWCO 0.5 mL Amicon spin concentrator. Samples were added to the spin concentrator, centrifuged at 15,000×g for 7 min, then diluted with 450 μL 20 mM sodium citrate, 50 mM NaCl pH 5.5 and centrifuged again. The process was repeated 10 times. To determine the DAR of the final product, ADCs were examined by analytical chromatography using HIC (Tosoh #14947) or PLRP-RP (Agilent PL1912-1802 1000 A, 8 um, 50×2.1 mm) columns. HIC analysis used mobile phase A: 1.5 M ammonium sulfate, 25 mM sodium phosphate pH 7.0, and mobile phase B: 25% isopropanol, 18.75 mM sodium phosphate pH 7.0. PLRP analysis used mobile phase A: 0.1% trifluoroacetic acid in water, and mobile phase B: 0.1% trifluoroacetic acid in acetonitrile. Prior to PLRP analysis, sample was denatured with the addition of 50 mM DTT, 4 M guanidine HCl (final concentrations) and heating at 37° C. for 30 min. To determine aggregation, samples were analyzed using analytical size exclusion chromatography (SEC; Tosoh #08541) with a mobile phase of 300 mM NaCl, 25 mM sodium phosphate pH 6.8 with 5% isopropanol.

[2] = Aggregation of conjugates by analytical size exclusion chromatography (SEC): % monomeric / % HMW; format: physicochemical
Description: as §1

[3] = conjugated to antibody against Target 1
[4] = conjugated to antibody against Target 2
[5] = conjugated to antibody against Target 3
[6] = conjugated to antibody against Target 4
[7] = conjugated to antibody against Target 5
[8] = conjugated to antibody against Target 7
[9] = conjugated to antibody against Target 8
[10] = conjugated to antibody against Target 9
[11] = conjugated to antibody against Target 10

CC[C@@]1(O)C(=O)OCc2c1cc1n(c2=O)Cc2c-1nc1ccccc1c2CCN(C(=O)OCc1ccc(NC(=O)[C@H](C)NC(=O)[C@@H](NC(=O)CCC(=O)Nc2ccc3c(c2)cc(CN(C)NC)n3CCC(=O)N[C@H](C(=O)N[C@@H](C)C(=O)Nc2ccc(COC(=O)N(CCc3c4c(nc5ccccc35)-c3cc5c(c(=O)n3C4)COC(=O)[C@]5(O)CC)C(C)C)cc2O[C@@H]2O[C@H](C(=O)O)[C@@H](O)[C@H](O)[C@H]2O)C(C)C)C(C)C)c(O[C@@H]2O[C@H](C(=O)O)[C@@H](O)[C@H](O)[C@H]2O)c1)C(C)C [Compound 18]
DAR [1, 3]: 6.82
DAR [1, 4]: 6.16
DAR [1, 5]: 4.31
DAR [1, 6]: 6.97
DAR [1, 7]: 5.45
DAR [1, 8]: 6.88
DAR [1, 9]: 6.1
DAR [1, 10]: 6.84
DAR [1, 11]: 5.49
% HMW (high-molecular weight species) [2, 3]: 1.8%
% HMW (high-molecular weight species) [2, 4]: 6.5%
% HMW (high-molecular weight species) [2, 5]: 4.3%
% HMW (high-molecular weight species) [2, 6]: 0.6%
% HMW (high-molecular weight species) [2, 7]: 0.8%
% HMW (high-molecular weight species) ([2]; conjugated to antibody against Target 6): 2.0%
% HMW (high-molecular weight species) [2, 8]: 1.6%
% HMW (high-molecular weight species) [2, 9]: 3.4%
% HMW (high-molecular weight species) [2, 10]: 1.5%
% HMW (high-molecular weight species) [2, 11]: 2.7%

CC[C@@]1(O)C(=O)OCc2c1cc1n(c2=O)Cc2c-1nc1ccccc1c2CCN(C(=O)OCc1ccc(NC(=O)[C@H](C)NC(=O)[C@@H](NC(=O)CCOCCOCCOCCOCCNC(=O)CCC(=O)Nc2ccc3c(c2)cc(CN(C)NC)n3CCC(=O)NCCOCCOCCOCCOCCC(=O)N[C@H](C(=O)N[C@@H](C)C(=O)Nc2ccc(COC(=O)N(CCc3c4c(nc5ccccc35)-c3cc5c(c(=O)n3C4)COC(=O)[C@]5(O)CC)C(C)C)cc2O[C@@H]2O[C@H](C(=O)O)[C@@H](O)[C@H](O)[C@H]2O)C(C)C)C(C)C)c(O[C@@H]2O[C@H](C(=O)O)[C@@H](O)[C@H](O)[C@H]2O)c1)C(C)C [Compound 36]
DAR [1, 4]: 6.78
DAR [1, 5]: 6.33
DAR [1, 7]: 6.88
DAR [1, 9]: 6.55
DAR [1, 10]: 6.32
DAR [1, 11]: 6.33
% HMW (high-molecular weight species) [2, 4]: 4.1%
% HMW (high-molecular weight species) [2, 5]: 6.1%
% HMW (high-molecular weight species) [2, 7]: 3.3%
% HMW (high-molecular weight species) [2, 9]: 3.5%
% HMW (high-molecular weight species) [2, 10]: 2.2%
% HMW (high-molecular weight species) [2, 11]: 6.2%
